# Results taken from the supplement of paper PMC6755084.
# B1: F1*; the commonest letter at each place (parent)
# chain: GAGACCGCAACTGAAAAGTTGTTATCACTTGTCGTAAGACACTTTGGATGGGTTGAAGTTCTGCACGTAGAAGCAAAAGGC
# Variants of: B1
# Experiment: fraction ligated after 30 min (ligated reads / total reads); higher = more ligase activity
# Details: with F1*sub RNA substrate (template-directed ligation), 42 °C
# How it was run: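 Oligo-pool templates underwent PCR amplification, T7 transcription and gel purification to yield ribozyme variants. Gel-separated ligated and unligated bands were converted to complementary DNA with barcoded primers and sequenced on a MiSeq, keeping core bases of quality ≥20. The ratio of ligated reads to total reads gave the fraction ligated for every variant.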
row,Variant,fraction ligated
1,GAGACCGCAACTGAAAAGTTGTTATCAGTTGTCTTAAGACACTTTGGATGGGTTGAAGTTCTGCACGTAGAAGCAAAAGGC,0.798
2,GAGACCGCAACTGAAAAGTTGTTATCACGTGTCGTAAGACATTTTGGATGGGTTGAAGTTCTGCACGTAGAAGCAAAAGGC,0.83
3,GAGACCGCAACTGAAAAGTTGTTATCACTTGGCATAAGACACTTTGGATGGGTTGAAGTTCTGCACGTAGAAGCAAAAGGC,0.83
4,GAGACCGCAACTGAAAAGTTGTTATCACTTGTCGTAAGAAATTTTGGATGGGTTGAAGTTCTGCACGTAGAAGCAAAAGGC,0.818
5,GAGACCGCAACTGAAAAGTTGTTATCACATGTCGGAAGACACTTTGGATGGGTTGAAGTTCTGCACGTAGAAGCAAAAGGC,0.834
6,GAGACCGCAACTGAAAAGTTGTTATCACATGTCGAAAGACACTTTGGATGGGTTGAAGTTCTGCACGTAGAAGCAAAAGGC,0.821
7,GAGACCGCAACTGAAAAGTTGTTATCACTTGTCGTAAGACACTTGTGATGGGTTGAAGTTCTGCACGTAGAAGCAAAAGGC,0.246
8,GAGACCGCAACTGAAAAGTTGTTATCACTTGTCGTAAGACACTTGGCATGGGTTGAAGTTCTGCACGTAGAAGCAAAAGGC,0.194
9,GAGACCGCAACTGAAAAGTTGTTATCACTTGTCGTAAGATACTTTGGATGGGTTAAAGTTCTGCACGTAGAAGCAAAAGGC,0.841
10,GAGACCGCAACTGAAAAGTTGTTTTCACTTGTCGTAACACACTTTGGATGGGTTGAAGTTCTGCACGTAGAAGCAAAAGGC,0.685
11,GAGACCGCAACTGAAAAGTTGTTATCATTTGTCGTAAGACACTGTGGATGGGTTGAAGTTCTGCACGTAGAAGCAAAAGGC,0.813
12,GAGACCGCAACTGAAAAGTTGTTATCACTTGTCGTAAGACACTTTGGAGGGGTTAAAGTTCTGCACGTAGAAGCAAAAGGC,0.688
13,GAGACCGCAACTGAAAAGTTGTTATCAATTGTCTTAAGACACTTTGGATGGGTTGAAGTTCTGCACGTAGAAGCAAAAGGC,0.808
14,GAGACCGCAACTGAAAAGTTGTTATCACTTGTCGTTAGACACTTTGGAAGGGTTGAAGTTCTGCACGTAGAAGCAAAAGGC,0.797
15,GAGACCGCAACTGAAAAGTTGTTATCACTTGTCGTAAGACACTTTGCATGGGTTTAAGTTCTGCACGTAGAAGCAAAAGGC,0.0996
16,GAGACCGCAACTGAAAAGTTGTTGTCACTTGTCGTAAGAGACTTTGGATGGGTTGAAGTTCTGCACGTAGAAGCAAAAGGC,0.802
17,GAGACCGCAACTGAAAAGTTGTTATCACTTGTCGTAAGACACTTTGGGAGGGTTGAAGTTCTGCACGTAGAAGCAAAAGGC,0.678
18,GAGACCGCAACTGAAAAGTTGTTATCACTTGTCGTAAGACACTGTGGATGGGTTGCAGTTCTGCACGTAGAAGCAAAAGGC,0.775
19,GAGACCGCAACTGAAAAGTTGTCATCACTTGTCGTAAGACAGTTTGGATGGGTTGAAGTTCTGCACGTAGAAGCAAAAGGC,0.761
20,GAGACCGCAACTGAAAAGTTGTTATCACTTGTTGTAAGACATTTTGGATGGGTTGAAGTTCTGCACGTAGAAGCAAAAGGC,0.86
21,GAGACCGCAACTGAAAAGTTGTAATCACTTGTCGTAAGACACTTTCGATGGGTTGAAGTTCTGCACGTAGAAGCAAAAGGC,0.731
22,GAGACCGCAACTGAAAAGTTGTTATAACTTTTCGTAAGACACTTTGGATGGGTTGAAGTTCTGCACGTAGAAGCAAAAGGC,0.0438
23,GAGACCGCAACTGAAAAGTTGTTATCACTTGTCGTTAGACACCTTGGATGGGTTGAAGTTCTGCACGTAGAAGCAAAAGGC,0.814

row,Variant,fraction ligated
1,GAGACCGCAACTGAAAAGTTGTTATCTCTTGTCGTAAGACACCTTGGATGGGTTGAAGTTCTGCACGTAGAAGCAAAAGGC,0.761
2,GAGACCGCAACTGAAAAGTTGTTATCACTTGTCCTGAGACACTTTGGATGGGTTGAAGTTCTGCACGTAGAAGCAAAAGGC,0.824
3,GAGACCGCAACTGAAAAGTTGTTTTCACTTGTCGTAAGACACTTTGGATGGGTTGCAGTTCTGCACGTAGAAGCAAAAGGC,0.0299
4,GAGACCGCAACTGAAAAGTTGTTATCACCTGTCGTAAGACACTTTGGGTGGGTTGAAGTTCTGCACGTAGAAGCAAAAGGC,0.389
5,GAGACCGCAACTGAAAAGTTGTTTTCACTCGTCGTAAGACACTTTGGATGGGTTGAAGTTCTGCACGTAGAAGCAAAAGGC,0.297
6,GAGACCGCAACTGAAAAGTTGTTATCACTTGTCGTATTACACTTTGGATGGGTTGAAGTTCTGCACGTAGAAGCAAAAGGC,0.838
7,GAGACCGCAACTGAAAAGTTGTTATCACTTGTCGGAAGACACTTTGGACGGGTTGAAGTTCTGCACGTAGAAGCAAAAGGC,0.727
8,GAGACCGCAACTGAAAAGTTGTTATCACTTGTCTTAAGCCACTTTGGATGGGTTGAAGTTCTGCACGTAGAAGCAAAAGGC,0.779
9,GAGACCGCAACTGAAAAGTTGTTATCACTTGTCGTAGGACACTTTGGACGGGTTGAAGTTCTGCACGTAGAAGCAAAAGGC,0.744
10,GAGACCGCAACTGAAAAGTTGTTATCACTTGTCGTAATACACTTTGGAAGGGTTGAAGTTCTGCACGTAGAAGCAAAAGGC,0.757
11,GAGACCGCAACTGAAAAGTTGTTCTCACTTGTCGTAAGACACTTTGAATGGGTTGAAGTTCTGCACGTAGAAGCAAAAGGC,0.806
12,GAGACCGCAACTGAAAAGTTGTTCTCACTTGTCGTAAGACACTTTGTATGGGTTGAAGTTCTGCACGTAGAAGCAAAAGGC,0.0249
13,GAGACCGCAACTGAAAAGTTGTTATCACTTGTCTTAAGACACTTTGGATGGGTTGGAGTTCTGCACGTAGAAGCAAAAGGC,0.785
14,GAGACCGCAACTGAAAAGTTGTTATAACTTGTCGTAAGACACCTTGGATGGGTTGAAGTTCTGCACGTAGAAGCAAAAGGC,0.755
15,GAGACCGCAACTGAAAAGTTGTTACCACTTGTCGTAGGACACTTTGGATGGGTTGAAGTTCTGCACGTAGAAGCAAAAGGC,0.812
16,GAGACCGCAACTGAAAAGTTGTTATCAGTTGTCGTAAGACACTTGGGATGGGTTGAAGTTCTGCACGTAGAAGCAAAAGGC,0.259
17,GAGACCGCAACTGAAAAGTTGTTACCACTTGTCGTAAGACATTTTGGATGGGTTGAAGTTCTGCACGTAGAAGCAAAAGGC,0.804
18,GAGACCGCAACTGAAAAGTTGTTATGACTTGTCGTAAGACACTGTGGATGGGTTGAAGTTCTGCACGTAGAAGCAAAAGGC,0.776
19,GAGACCGCAACTGAAAAGTTGTTATCACTTGGCGTTAGACACTTTGGATGGGTTGAAGTTCTGCACGTAGAAGCAAAAGGC,0.823
20,GAGACCGCAACTGAAAAGTTGTTATCACTTGTCGTAAGACACTTTTGATGGGTTTAAGTTCTGCACGTAGAAGCAAAAGGC,0.482
21,GAGACCGCAACTGAAAAGTTGTTATCACTGGTCGTAAGACACTTTGGAAGGGTTGAAGTTCTGCACGTAGAAGCAAAAGGC,0.739
22,GAGACCGCAACTGAAAAGTTGTTATCACTTGTCGTAAGACCCTTTGGATGGGTTGCAGTTCTGCACGTAGAAGCAAAAGGC,0.503
23,GAGACCGCAACTGAAAAGTTGTTATCACTTGTCGTAAGACCCTGTGGATGGGTTGAAGTTCTGCACGTAGAAGCAAAAGGC,0.797

row,Variant,fraction ligated
1,GAGACCGCAACTGAAAAGTTGTTATCACTTGACGTAAGACACTTTGGGTGGGTTGAAGTTCTGCACGTAGAAGCAAAAGGC,0.749
2,GAGACCGCAACTGAAAAGTTGTTGTCACTTCTCGTAAGACACTTTGGATGGGTTGAAGTTCTGCACGTAGAAGCAAAAGGC,0.181
3,GAGACCGCAACTGAAAAGTTGTTGTCACTTGTCGTAAGACACTTCGGATGGGTTGAAGTTCTGCACGTAGAAGCAAAAGGC,0.0441
4,GAGACCGCAACTGAAAAGTTGTTCTCACTTGTCGTAAGACACTTTGGCTGGGTTGAAGTTCTGCACGTAGAAGCAAAAGGC,0.186
5,GAGACCGCAACTGAAAAGTTGTTATCACTTGTCGGAAGACACTTTGGATGGGTTGAAGTTCTGCACGTAGAAGCAAAAGGC,0.839
6,GAGACCGCAACTGAAAAGTTGTTATCCCTTGTCGTAAGACACTTTCGATGGGTTGAAGTTCTGCACGTAGAAGCAAAAGGC,0.782
7,GAGACCGCAACTGAAAAGTTGTTATCACTGGTCCTAAGACACTTTGGATGGGTTGAAGTTCTGCACGTAGAAGCAAAAGGC,0.795
8,GAGACCGCAACTGAAAAGTTGTTATTATTTGTCGTAAGACACTTTGGATGGGTTGAAGTTCTGCACGTAGAAGCAAAAGGC,0.733
9,GAGACCGCAACTGAAAAGTTGTTATCACTTGCCGTAAGACGCTTTGGATGGGTTGAAGTTCTGCACGTAGAAGCAAAAGGC,0.709
10,GAGACCGCAACTGAAAAGTTGTTATCACTTGGCGTAAGACCCTTTGGATGGGTTGAAGTTCTGCACGTAGAAGCAAAAGGC,0.794
11,GAGACCGCAACTGAAAAGTTGTTATCACTTGTCGTAAGACACTCTGGATGGGTTTAAGTTCTGCACGTAGAAGCAAAAGGC,0.779
12,GAGACCGCAACTGAAAAGTTGTTATCACTTGTCGACAGACACTTTGGATGGGTTGAAGTTCTGCACGTAGAAGCAAAAGGC,0.865
13,GAGACCGCAACTGAAAAGTTGTTATCACTTGTCGTAAGACACTTTCGATGGGTTGGAGTTCTGCACGTAGAAGCAAAAGGC,0.315
14,GAGACCGCAACTGAAAAGTTGTTATCACTTGTCATAAGACACTTTCGATGGGTTGAAGTTCTGCACGTAGAAGCAAAAGGC,0.798
15,GAGACCGCAACTGAAAAGTTGTTTTCACTTGTTGTAAGACACTTTGGATGGGTTGAAGTTCTGCACGTAGAAGCAAAAGGC,0.742
16,GAGACCGCAACTGAAAAGTTGTTATCACTTGTCGTAAGACACTTAGGATGGGTTGACGTTCTGCACGTAGAAGCAAAAGGC,0.773
17,GAGACCGCAACTGAAAAGTTGTTATCAATTGTCGTAAGGCACTTTGGATGGGTTGAAGTTCTGCACGTAGAAGCAAAAGGC,0.798
18,GAGACCGCAACTGAAAAGTTGTTATCACTTCGCGTAAGACACTTTGGATGGGTTGAAGTTCTGCACGTAGAAGCAAAAGGC,0.78
19,GAGACCGCAACTGAAAAGTTGTTATCACTTTTCGTACGACACTTTGGATGGGTTGAAGTTCTGCACGTAGAAGCAAAAGGC,0.78
20,GAGACCGCAACTGAAAAGTTGTTAACACTTGTCATAAGACACTTTGGATGGGTTGAAGTTCTGCACGTAGAAGCAAAAGGC,0.724
21,GAGACCGCAACTGAAAAGTTGTTATCACTTGTCGTGAGACACTTTGGATGGGTTAAAGTTCTGCACGTAGAAGCAAAAGGC,0.867
22,GAGACCGCAACTGAAAAGTTGTTATCACTTGTCGTGAGAAACTTTGGATGGGTTGAAGTTCTGCACGTAGAAGCAAAAGGC,0.829
